Reference: PMC7921601

What was measured:
[1] = target: AF647-CLIC1C24 (CLIC1 W23F, C59A, C89A, C178A, C191A, C223A, labelled with Alexa Fluor 647 at C24) (UniProt O00299); assay: two-colour single-molecule TIRF colocalisation with photobleaching step analysis; AF647-CLIC1C24 (1 μM) with AF488-αBcC176 (2 μM) at 37 °C in 50 mM phosphate buffer pH 7.4; later timepoints (1-10 h); diluted 1:1000, CLIC1 held by an anti-6X His-tag antibody; with or without cross-linking before dilution
[2] = target: AF647-CLIC1C24 (CLIC1 W23F, C59A, C89A, C178A, C191A, C223A, labelled with Alexa Fluor 647 at C24) (UniProt O00299); assay: two-colour single-molecule TIRF colocalisation with photobleaching step analysis; AF647-CLIC1C24 (1 μM) with AF488-αBcC176 (2 μM) at 37 °C in 50 mM phosphate buffer pH 7.4; early timepoints (0.25-0.5 h); diluted 1:1000, CLIC1 held by an anti-6X His-tag antibody; conditions: scale: αBc subunits per CLIC1 subunit
[3] = target: AF488-αBc_(C176) (human alphaB-crystallin with an additional C-terminal cysteine, labelled with Alexa Fluor 488) (human); assay: single-molecule TIRF with photobleaching step analysis; αBcC176 in the absence of CLIC1C24, with or without cross-linking, diluted for TIRF microscopy; size of the oligomers
[4] = target: AF555-CLIC1C24 (CLIC1 W23F, C59A, C89A, C178A, C191A, C223A, labelled with Alexa Fluor 555 at C24) (UniProt O00299); assay: FRET or BRET; single-molecule FRET by TIRF microscopy; AF555-CLIC1C24 (1 μM) with AF647-αBcC176 (2 μM) for 20 h at 37 °C in 50 mM phosphate buffer pH 7.4, diluted 1:1000, CLIC1 held on the coverslip by an anti-6X His-tag antibody; imaged at about 20 °C

Substance | percent of CLIC1C24 colocalized with αBcC176 (maximum, after 4 h) [1] | stoichiometry N [2] | stoichiometry N [3] | FRET efficiency (E) [4]
AF488-αBc_(C176) (human alphaB-crystallin with an additional C-terminal cysteine, labelled with Alexa Fluor 488) (natural protein) | 50% | 1 | < 10 subunits | –
AF647-αBc_(C176) (human alphaB-crystallin with an additional C-terminal cysteine, labelled with Alexa Fluor 647) (natural protein) | – | – | – | 0.8 to 1
